Data published in patent US9255132B2, “Angiopoietin derived peptides” (Compugen Ltd., priority 2008, dated 2016).

T1: human Ang2 (Homo sapiens, UniProt O15123)
T1 construct: purchased R&D Systems 623-AN-025/CF
T1 sequence (O15123 19-496): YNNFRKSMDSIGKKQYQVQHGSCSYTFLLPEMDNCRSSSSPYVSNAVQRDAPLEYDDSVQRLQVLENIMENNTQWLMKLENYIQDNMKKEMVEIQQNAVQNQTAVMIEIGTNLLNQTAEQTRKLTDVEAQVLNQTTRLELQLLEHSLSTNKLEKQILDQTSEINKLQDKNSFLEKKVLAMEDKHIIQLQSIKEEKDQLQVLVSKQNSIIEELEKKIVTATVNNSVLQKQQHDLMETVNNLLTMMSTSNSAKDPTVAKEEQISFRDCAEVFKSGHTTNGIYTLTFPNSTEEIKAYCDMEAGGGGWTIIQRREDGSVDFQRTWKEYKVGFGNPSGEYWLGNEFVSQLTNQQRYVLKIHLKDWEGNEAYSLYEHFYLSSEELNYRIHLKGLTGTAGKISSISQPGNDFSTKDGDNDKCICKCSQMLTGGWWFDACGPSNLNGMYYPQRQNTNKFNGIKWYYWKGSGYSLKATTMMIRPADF

T2: recombinant human Ang1 (Homo sapiens, UniProt Q15389)
T2 construct: purchased R&D Systems 923-AN-025/CF
T2 sequence (Q15389 16-498): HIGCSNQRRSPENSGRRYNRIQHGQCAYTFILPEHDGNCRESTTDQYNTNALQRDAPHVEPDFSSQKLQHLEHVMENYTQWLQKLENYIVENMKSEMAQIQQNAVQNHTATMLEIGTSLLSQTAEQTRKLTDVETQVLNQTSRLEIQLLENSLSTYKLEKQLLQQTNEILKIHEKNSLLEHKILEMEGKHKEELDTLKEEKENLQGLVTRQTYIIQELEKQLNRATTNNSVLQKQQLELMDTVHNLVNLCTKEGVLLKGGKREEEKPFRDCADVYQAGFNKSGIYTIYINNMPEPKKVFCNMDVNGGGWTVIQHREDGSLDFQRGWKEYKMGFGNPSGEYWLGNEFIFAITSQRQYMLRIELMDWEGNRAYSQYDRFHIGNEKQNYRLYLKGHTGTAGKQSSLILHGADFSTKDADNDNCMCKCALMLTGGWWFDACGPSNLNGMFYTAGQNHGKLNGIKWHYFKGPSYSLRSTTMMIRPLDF

T3: human Ang4 (Homo sapiens, UniProt Q9Y264)
T3 construct: purchased R&D Systems 964-AN-025/CF
T3 sequence (Q9Y264 25-503): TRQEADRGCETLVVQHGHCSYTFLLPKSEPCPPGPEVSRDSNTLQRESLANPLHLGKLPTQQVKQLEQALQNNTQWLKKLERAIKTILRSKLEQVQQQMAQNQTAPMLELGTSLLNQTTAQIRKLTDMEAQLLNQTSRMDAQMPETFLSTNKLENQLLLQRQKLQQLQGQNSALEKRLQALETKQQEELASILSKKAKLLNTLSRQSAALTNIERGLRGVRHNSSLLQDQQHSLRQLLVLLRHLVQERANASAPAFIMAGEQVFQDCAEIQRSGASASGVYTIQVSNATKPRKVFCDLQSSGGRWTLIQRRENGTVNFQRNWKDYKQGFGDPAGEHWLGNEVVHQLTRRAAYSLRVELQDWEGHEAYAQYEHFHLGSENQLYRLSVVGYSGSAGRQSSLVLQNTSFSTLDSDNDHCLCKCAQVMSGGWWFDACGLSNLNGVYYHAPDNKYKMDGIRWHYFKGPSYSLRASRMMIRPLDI


What was measured:
human Ang2 = biological target: T1, human Ang2; assay: BIACORE (SPR) binding of peptides to immobilized recombinant Ang2; conditions: CM5 chip, 10-50 μM peptide
Excerpt: (§1) The capability of CGEN-H2 [SEQ ID NO: 1], CGEN-H3 [SEQ ID NO: 2], CGEN-A8 [SEQ ID NO: 3], CGEN-H7 [SEQ ID NO: 4], CGEN-G4 [SEQ ID NO: 5], CGEN-G6 [SEQ ID NO: 6], CGEN-F9 [SEQ ID NO: 7], CGEN-F12 [SEQ ID NO: 8], CGEN-C6-30 [SEQ ID NO: 9], CGEN-All [SEQ ID NO: 10], and CGEN-G2 [SEQ ID NO: 11] to specifically bind to recombinant Ang1, Ang2, and Ang4 was investigated using the BIACORE technology, measuring protein-protein interaction and binding affinity (Wendler et al 2005, Anal Bioanal Chem, 381: 1056-1064). The technology is based on surface plasmon resonance (SPR), an optical phenomenon that enables detection of unlabeled interactants in real time. The SPR-based biosensors can be used in determination of active concentration, screening and characterization in terms of both affinity and kinetics.
(§2) Peptide-protein binding was analyzed using surface plasmon resonance. Analysis of the to interaction between CGEN-H2 [SEQ ID NO: 1], CGEN-H3 [SEQ ID NO: 2], CGEN-A8 [SEQ ID NO: 3], CGEN-H7 [SEQ ID NO: 4], CGEN-G4 [SEQ ID NO: 5], CGEN-G6 [SEQ ID NO: 6], CGEN-F9 [SEQ ID NO: 7], CGEN-F12 [SEQ ID NO: 8], CGEN-C6 [SEQ ID NO: 9], CGEN-A11 [SEQ ID NO: 10], and CGEN-G2 [SEQ ID NO: 11] peptides and recombinant human Ang1 carrier-free (R&D Systems, Cat#923-AN-025/CF, Lot#FHW1507031), human Ang2 carrier-free (R&D Systems, Cat#623-AN-025/CF, Lot#BNO0457121), and human Ang4 carrier-free (R&D Systems, Cat#964-AN-025/CF, Lot#ELM025121) was conducted using the BIAcore biosensor (Pharmacia Biosensor, Uppsala, Sweden). The recombinant Ang1, Ang2, and Ang4 were immobilized directly to a CM5 sensor chip. Solutions containing 10-50 μM of CGEN-H2 [SEQ ID NO: 1], CGEN-H3 [SEQ ID NO: 2], CGEN-A8 [SEQ ID NO: 3], CGEN-H7 [SEQ ID NO: 4], CGEN-G4 [SEQ ID NO: 5], CGEN-G6 [SEQ ID NO: 6], CGEN-F9 [SEQ ID NO: 7], CGEN-F12 [SEQ ID NO: 8], CGEN-C6 [SEQ ID NO: 9], CGEN-A11 [SEQ ID NO: 10], and CGEN-G2 [SEQ ID NO: 11] peptides were injected into the sample chamber of the BIACORE device at a rate of […] and the interaction was monitored using surface plasmon resonance.
(§3) Solutions containing different concentrations of CGEN-G6 [SEQ ID NO: 6], CGEN-F9 [SEQ ID NO: 7], CGEN-F12 [SEQ ID NO: 8], CGEN-A11 [SEQ ID NO: 10], and CGEN-G2 [SEQ ID NO: 11] peptides (as indicated in Table 2) were injected into the sample chamber of the BIACORE device at a rate of […] and the interaction was monitored using surface plasmon resonance. As a background, the solutions were also injected onto an empty flow cell with no immobilized ligand and the in binding levels achieved were subtracted. Data was analyzed using BIAevaluation software. The affinity constant of the interaction between CGEN-G6 [SEQ ID NO: 6], CGEN-F9 [SEQ ID NO: 7], CGEN-F12 [SEQ ID NO: 8], CGEN-C6 [SEQ ID NO: 9], CGEN-A11 [SEQ ID NO: 10], and CGEN-G2 [SEQ ID NO: 11] and Ang1, Ang2, or Ang4 was determined by direct kinetic analysis. The 1:1 Langmuir binding model was used to fit kinetic data.
(§4) Table 2 summarizes results of analysis of CGEN-G6 [SEQ ID NO: 6], CGEN-F9 [SEQ ID NO: 7], CGEN-F12 [SEQ ID NO: 8], CGEN-A11 [SEQ ID NO: 10], and CGEN-G2 [SEQ ID NO: 11] interaction with Ang1, Ang2, or Ang4. Kinetic measurements were done at the indicated concentration range, and they are presented as KD (M). CGEN-F12 [SEQ ID NO: 8] bound to Ang1 and Ang4 with high affinity. The specificity of this binding is not clear.

recombinant human Ang1 = biological target: T2, recombinant human Ang1; assay: BIACORE (SPR) binding of peptides to immobilized recombinant Ang1; conditions: CM5 chip, 10-50 μM peptide
Excerpt: as §1, §2, §3, §4

human Ang4 = biological target: T3, human Ang4; assay: BIACORE (SPR) binding of peptides to immobilized recombinant Ang4; conditions: CM5 chip, 10-50 μM peptide
Excerpt: as §1, §2, §3, §4

[1] = tested on: oxygen-induced retinopathy (OIR); assay: Rodent model of oxygen-induced retinopathy (OIR); assay type: in vivo, Sprague Dawley rats
Excerpt: In order to assess the in viva efficacy of CGEN-A 11 [SEQ ID NO: 10] in a disease model of angiogenesis, a rodent model of oxygen-induced retinopathy (OIR) was used. Sprague Dawley rats were raised from birth through day PI4 in a variable oxygen atmosphere consisting of 24-hour alternating cycles of 50% and 10% oxygen. Rats were predisposed to pathological retinal angiogenesis as a result of oxygen treatment. Upon removal from the oxygen exposure chamber on day P14, rats received intravitreal injections of CGEN-A11 [SEQ ID NO: 10] in one of two doses: 15 μg/ml (low) or 75 μg/ml (high), 100 μg/ml recombinant rat Tie-2/Fc (R&D Systems, 3874-T2) or 100 μg/ml anti-VEGFR2 (Sigma, V1014) as positive controls, a combination of CGEN-A11 [SEQ ID NO: 10] at 30 μg/ml and anti-VEGFR2 (100 μg/ml), or vehicle (PBS) at a volume of 5 μl. An additional similar intravitreal administration took place 3 days later, on day P17. All pups were sacrificed on day P20. Both normal, intra-retinal vascular growth and abnormal, pre-retinal neovascular growth were assessed at six days post-exposure (P20) in ADPase-stained retinal flat-mounts, using widely published methods (e.g. Penn J S et al., 1991, Invest Ophthalmol Vis Sci. 32(4):1147; MicLeod D S et al., 1987, Microvasc Res. 33:257-269). All assessments were performed by a single, highly trained observer, who was blinded to treatment group. Areas of normal and abnormal vascular growth were measured via computer-assisted image analysis using high-resolution digital images of the stained retinal flat-mounts. The data were subjected to analysis of variance to determine statistical significance and a Dunnett's post hoc test to identify how the various treatment groups compared.
Data are depicted using percent total retinal area vascularized. Sample sizes (10, 11 or 12) are indicated on each bar. […] These differences yielded statistical significance, both at p<0.0001. Statistical significance was calculated using area (mm^2) measurements.
Data are depicted as area vascularized (mm^2). Sample sizes (10, 11 or 12) are indicated on each bar.

Row | Molecule | binding to immobilized Ang2 (in words) (human Ang2) | binding to immobilized Ang1 (in words) (recombinant human Ang1) | binding to immobilized Ang4 (in words) (human Ang4) | inhibition of pre-retinal neovascular growth (pathological angiogenesis) ([1]; Tie-2/Fc intravitreal 100 μg/ml, P20, p=0.0436) [%] | intra-retinal normal vascular growth compared to PBS control ([1]; intravitreal 100 μg/ml, 5 μl, P14 and P17, assessed P20, p<0.0001)
1 | TDMEAQLLNQTSRMDAQM (Ac-TDMEAQLLNQTSRMDAQM-NH2) [CGEN-C6, amino acid residues 150-167 of angiopoietin 4] | not sufficiently strong | did not bind | did not bind |  | 
2 | TNNSVLQKQQL (Ac-TNNSVLQKQQL-NH2) [CGEN-H3, amino acid residues 242-252 of angiopoietin 1] | none or low binding | none or low binding | none or low binding |  | 
3 | Tie-2/Fc: recombinant rat Tie-2/Fc (R&D Systems, 3874-T2), positive control (protein, left off: a dimerising Fc or GST, recombinant rat Tie-2/Fc (R&D Systems, 3874-T2), positive control) AMDLILINSLPLVSDAETSLTCIASGWRPHEPITIGRDFEALMNQHQDPLEVTQDVTREWAKKVVWKREKASKINGAYFCEGRVRGEAIRIRTMKMRQQASFLPATLTMTVDKGDNVNISFKKVLIKEEDAVIYKNGSFIHSVPRHEVPDILEVHLPHAQPQDAGVYSARYIGGNLFTSAFTRLIVRRCEAQKWGPECNHLCTACMNNGVCHEDTGECICPPGFMGRTCEKACELHTFGRTCKERCSGQEGCKSYVFCLPDPYGCSCATGWKGLQCNEACHPGFYGPDCKLRCSCNNGEMCDRFQGCLCSPGWQGLQCEREGIQRMTPKIVDLPDHIEVNSGKFNPICKASGWPLPTNEEMTLVKPDGTVLHPKDFNHTDHFSVAIFTIHRILPPDSGVWVCSVNTVAGMVEKPFNISVKVLPKPLNAPNVIDTGHNFAVINISSEPYFGDGPIKSKKLLYKPVNHYEAWQHIQVTNEIVTLNYLEPRTEYELCVQLVRRGEGGEGHPGPVRRFTTASIGLPPPRGLNLLPKSQTTLNLTWQPIFPSSEDDFYVEVERRSVQKSDQQNIKVPGNLTSVLLNNLHPREQYVVRARVNTKAQGEWSEDLTAWTLSDILPPQPENIKISNITHSSAVISWTILDGYSISSITIRYKVQGKNEDQHVDVKIKNATITQYQLKGLEPETAYQVDIFAENNIGSSNPAFSHELVTLPESQAPADLGGGK |  |  |  | 61.9 | statistically significant increase
